Reference: patent US20200079833A1 (AstraZeneca / MedImmune, published 2020)
Starred links: 1 amine or outer side, 2 acyl side, 3 side chain; linkers in the order of their positions; H or OH if unused. Non-standard residues stand in square brackets, D forms with d. Groups on a side chain read outwards from the residue. Primed or numbered codes have the meaning given here. No end group written: not given here. *: point of attachment. γGlu = O=C(O)[C@H](CCC(=O)[*:2])N[*:1]; Stearoyl = CCCCCCCCCCCCCCCCCC(=O)*; αMeF = C[C@](N)(Cc1ccccc1)C(=O)O; αMeK = C[C@](N)(CCCCN)C(=O)O; Lauroyl = CCCCCCCCCCCC(=O)*; αMeS = C[C@](N)(CO)C(=O)O; PEG2′ = not defined here; Aib = CC(C)(N)C(=O)O; Ahx = NCCCCCC(=O)O

T1: glucose-dependent insulinotropic peptide (gastric inhibitory polypeptide) receptor (GIPR) (human, UniProt P48546 22-466)
T1 sequence (looked up): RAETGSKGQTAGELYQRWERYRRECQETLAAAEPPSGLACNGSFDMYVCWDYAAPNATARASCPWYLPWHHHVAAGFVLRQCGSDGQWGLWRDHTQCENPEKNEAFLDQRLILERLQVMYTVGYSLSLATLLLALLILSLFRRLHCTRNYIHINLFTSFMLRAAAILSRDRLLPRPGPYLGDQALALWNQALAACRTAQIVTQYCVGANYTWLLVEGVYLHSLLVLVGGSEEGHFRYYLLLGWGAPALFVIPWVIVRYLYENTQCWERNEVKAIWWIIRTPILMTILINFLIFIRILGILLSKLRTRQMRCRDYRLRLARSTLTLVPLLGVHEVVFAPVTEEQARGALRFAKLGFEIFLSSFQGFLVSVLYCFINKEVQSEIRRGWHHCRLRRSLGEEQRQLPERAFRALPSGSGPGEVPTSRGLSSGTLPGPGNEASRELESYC

B1: SEQ ID NO 132 (peptide)
peptide: H[Aib]EGS[αMeF]TSDV[αMeS]S[αMeF]LEGEAAK([Ahx-Ahx-Lauroyl])E[αMeF]IA[αMeF]VV[αMeK]GG-NH2
modifications: N-terminus assumed
SMILES: CCCCCCCCCCCC(=O)NCCCCCC(=O)NCCCCCC(=O)NCCCC[C@H](NC(=O)[C@H](C)NC(=O)[C@H](C)NC(=O)[C@H](CCC(=O)O)NC(=O)CNC(=O)[C@H](CCC(=O)O)NC(=O)[C@H](CC(C)C)NC(=O)[C@](C)(Cc1ccccc1)NC(=O)[C@H](CO)NC(=O)[C@](C)(CO)NC(=O)[C@@H](NC(=O)[C@H](CC(=O)O)NC(=O)[C@H](CO)NC(=O)[C@@H](NC(=O)[C@](C)(Cc1ccccc1)NC(=O)[C@H](CO)NC(=O)CNC(=O)[C@H](CCC(=O)O)NC(=O)C(C)(C)NC(=O)[C@@H](N)Cc1c[nH]cn1)[C@@H](C)O)C(C)C)C(=O)N[C@@H](CCC(=O)O)C(=O)N[C@@](C)(Cc1ccccc1)C(=O)N[C@H](C(=O)N[C@@H](C)C(=O)N[C@@](C)(Cc1ccccc1)C(=O)N[C@H](C(=O)N[C@H](C(=O)N[C@@](C)(CCCCN)C(=O)NCC(=O)NCC(N)=O)C(C)C)C(C)C)[C@@H](C)CC
B2: SEQ ID NO 128 (peptide)
peptide: H[Aib]EGS[αMeF]TSDV[αMeS]S[αMeF]LEGEAAK([γGlu-Lauroyl])E[αMeF]IA[αMeF]VV[αMeK]GG-NH2
modifications: N-terminus assumed
SMILES: CCCCCCCCCCCC(=O)N[C@@H](CCC(=O)NCCCC[C@H](NC(=O)[C@H](C)NC(=O)[C@H](C)NC(=O)[C@H](CCC(=O)O)NC(=O)CNC(=O)[C@H](CCC(=O)O)NC(=O)[C@H](CC(C)C)NC(=O)[C@](C)(Cc1ccccc1)NC(=O)[C@H](CO)NC(=O)[C@](C)(CO)NC(=O)[C@@H](NC(=O)[C@H](CC(=O)O)NC(=O)[C@H](CO)NC(=O)[C@@H](NC(=O)[C@](C)(Cc1ccccc1)NC(=O)[C@H](CO)NC(=O)CNC(=O)[C@H](CCC(=O)O)NC(=O)C(C)(C)NC(=O)[C@@H](N)Cc1c[nH]cn1)[C@@H](C)O)C(C)C)C(=O)N[C@@H](CCC(=O)O)C(=O)N[C@@](C)(Cc1ccccc1)C(=O)N[C@H](C(=O)N[C@@H](C)C(=O)N[C@@](C)(Cc1ccccc1)C(=O)N[C@H](C(=O)N[C@H](C(=O)N[C@@](C)(CCCCN)C(=O)NCC(=O)NCC(N)=O)C(C)C)C(C)C)[C@@H](C)CC)C(=O)O
B3: SEQ ID NO 126 (peptide)
peptide: H[Aib]K([PEG2′-PEG2′-γGlu-Stearoyl])GS[αMeF]TSDV[αMeS]S[αMeF]LEGEAA[αMeK]E[αMeF]IA[αMeF]VV[αMeK]GG-NH2
B4: SEQ ID NO 127 (peptide)
peptide: HK([PEG2′-PEG2′-γGlu-Stearoyl])EGS[αMeF]TSDV[αMeS]S[αMeF]LEGEAA[αMeK]E[αMeF]IA[αMeF]VV[αMeK]GG-NH2
B5: SEQ ID NO 129 (peptide)
peptide: H[Aib]EGS[αMeF]TSDV[αMeS]S[αMeF]LEGEAAK([γGlu-γGlu-Lauroyl])E[αMeF]IA[αMeF]VV[αMeK]GG-NH2
modifications: N-terminus assumed
SMILES: CCCCCCCCCCCC(=O)N[C@@H](CCC(=O)N[C@@H](CCC(=O)NCCCC[C@H](NC(=O)[C@H](C)NC(=O)[C@H](C)NC(=O)[C@H](CCC(=O)O)NC(=O)CNC(=O)[C@H](CCC(=O)O)NC(=O)[C@H](CC(C)C)NC(=O)[C@](C)(Cc1ccccc1)NC(=O)[C@H](CO)NC(=O)[C@](C)(CO)NC(=O)[C@@H](NC(=O)[C@H](CC(=O)O)NC(=O)[C@H](CO)NC(=O)[C@@H](NC(=O)[C@](C)(Cc1ccccc1)NC(=O)[C@H](CO)NC(=O)CNC(=O)[C@H](CCC(=O)O)NC(=O)C(C)(C)NC(=O)[C@@H](N)Cc1c[nH]cn1)[C@@H](C)O)C(C)C)C(=O)N[C@@H](CCC(=O)O)C(=O)N[C@@](C)(Cc1ccccc1)C(=O)N[C@H](C(=O)N[C@@H](C)C(=O)N[C@@](C)(Cc1ccccc1)C(=O)N[C@H](C(=O)N[C@H](C(=O)N[C@@](C)(CCCCN)C(=O)NCC(=O)NCC(N)=O)C(C)C)C(C)C)[C@@H](C)CC)C(=O)O)C(=O)O
B6: SEQ ID NO 131 (peptide)
peptide: H[Aib]EGS[αMeF]TSDV[αMeS]S[αMeF]LEGEAAK([Ahx-Lauroyl])E[αMeF]IA[αMeF]VV[αMeK]GG-NH2
modifications: N-terminus assumed
SMILES: CCCCCCCCCCCC(=O)NCCCCCC(=O)NCCCC[C@H](NC(=O)[C@H](C)NC(=O)[C@H](C)NC(=O)[C@H](CCC(=O)O)NC(=O)CNC(=O)[C@H](CCC(=O)O)NC(=O)[C@H](CC(C)C)NC(=O)[C@](C)(Cc1ccccc1)NC(=O)[C@H](CO)NC(=O)[C@](C)(CO)NC(=O)[C@@H](NC(=O)[C@H](CC(=O)O)NC(=O)[C@H](CO)NC(=O)[C@@H](NC(=O)[C@](C)(Cc1ccccc1)NC(=O)[C@H](CO)NC(=O)CNC(=O)[C@H](CCC(=O)O)NC(=O)C(C)(C)NC(=O)[C@@H](N)Cc1c[nH]cn1)[C@@H](C)O)C(C)C)C(=O)N[C@@H](CCC(=O)O)C(=O)N[C@@](C)(Cc1ccccc1)C(=O)N[C@H](C(=O)N[C@@H](C)C(=O)N[C@@](C)(Cc1ccccc1)C(=O)N[C@H](C(=O)N[C@H](C(=O)N[C@@](C)(CCCCN)C(=O)NCC(=O)NCC(N)=O)C(C)C)C(C)C)[C@@H](C)CC
B7: SEQ ID NO 130 (peptide)
peptide: H[Aib]EGS[αMeF]TSDV[αMeS]S[αMeF]LEGEAAK([γGlu-γGlu-γGlu-Lauroyl])E[αMeF]IA[αMeF]VV[αMeK]GG-NH2
modifications: N-terminus assumed
SMILES: CCCCCCCCCCCC(=O)N[C@@H](CCC(=O)N[C@@H](CCC(=O)N[C@@H](CCC(=O)NCCCC[C@H](NC(=O)[C@H](C)NC(=O)[C@H](C)NC(=O)[C@H](CCC(=O)O)NC(=O)CNC(=O)[C@H](CCC(=O)O)NC(=O)[C@H](CC(C)C)NC(=O)[C@](C)(Cc1ccccc1)NC(=O)[C@H](CO)NC(=O)[C@](C)(CO)NC(=O)[C@@H](NC(=O)[C@H](CC(=O)O)NC(=O)[C@H](CO)NC(=O)[C@@H](NC(=O)[C@](C)(Cc1ccccc1)NC(=O)[C@H](CO)NC(=O)CNC(=O)[C@H](CCC(=O)O)NC(=O)C(C)(C)NC(=O)[C@@H](N)Cc1c[nH]cn1)[C@@H](C)O)C(C)C)C(=O)N[C@@H](CCC(=O)O)C(=O)N[C@@](C)(Cc1ccccc1)C(=O)N[C@H](C(=O)N[C@@H](C)C(=O)N[C@@](C)(Cc1ccccc1)C(=O)N[C@H](C(=O)N[C@H](C(=O)N[C@@](C)(CCCCN)C(=O)NCC(=O)NCC(N)=O)C(C)C)C(C)C)[C@@H](C)CC)C(=O)O)C(=O)O)C(=O)O

Biological target: GLP-1 receptor (GLP-1R) (human, UniProt P43220 24-463)
Test: cell-based or functional assay

Row | Binder | cAMP Mean pM GLP-1R | cAMP Primary assay EC50 GLP-1R n1 | cAMP Primary assay EC50 GLP-1R n2
1 | B1 | 9 pM | 0.011 nM | 0.0071 nM
2 | B2 | 18.2 pM | 0.015 nM | 0.021 nM
3 | B3 | 25400 pM | 25 nM | 25.4 nM
4 | B4 | 25100 pM | 25 nM | 25.1 nM
5 | B5 | 11.5 pM | 0.012 nM | 0.011 nM
6 | B6 | 11.7 pM | 0.014 nM | 0.0099 nM
7 | B7 | 14.4 pM | 0.016 nM | 0.013 nM

Biological target: glucagon receptor (GCGR) (human, UniProt P47871 26-477)
Test: cell-based or functional assay

Chain of glucagon receptor (GCGR) (P47871 26-477): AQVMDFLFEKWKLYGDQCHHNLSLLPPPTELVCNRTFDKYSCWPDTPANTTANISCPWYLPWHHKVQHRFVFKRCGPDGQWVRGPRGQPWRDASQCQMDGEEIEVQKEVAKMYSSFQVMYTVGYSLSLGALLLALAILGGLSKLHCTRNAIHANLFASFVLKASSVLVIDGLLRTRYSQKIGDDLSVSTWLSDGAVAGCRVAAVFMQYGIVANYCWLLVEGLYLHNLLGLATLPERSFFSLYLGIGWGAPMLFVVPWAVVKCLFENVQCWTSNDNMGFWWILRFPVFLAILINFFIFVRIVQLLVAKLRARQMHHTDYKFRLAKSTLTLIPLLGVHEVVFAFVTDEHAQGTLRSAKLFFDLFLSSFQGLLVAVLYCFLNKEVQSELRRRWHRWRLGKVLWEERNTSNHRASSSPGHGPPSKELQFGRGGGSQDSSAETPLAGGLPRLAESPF

Row | Binder | cAMP Primary assay EC50 Gluc-R | cAMP Primary assay EC50 Gluc-R (2nd)
8 | B1 | 28 nM | 28 nM
9 | B2 | 28 nM | 28 nM
10 | B3 | 25 nM | 25.4 nM
11 | B4 | 25 nM | 25.1 nM
12 | B5 | 27 nM | 27 nM
13 | B6 | 29 nM | 29 nM
14 | B7 | 26 nM | 26 nM

Biological target: T1, glucose-dependent insulinotropic …
Test: cell-based or functional assay

Row | Binder | cAMP Primary assay EC50 GIP-R | cAMP Primary assay EC50 GIP-R (2nd)
15 | B1 | 28 nM | 28 nM
16 | B2 | 28 nM | 28 nM
17 | B3 | 25 nM | 25.4 nM
18 | B4 | 25 nM | 25.1 nM
19 | B5 | 27 nM | 27 nM
20 | B6 | 29 nM | 29 nM
21 | B7 | 26 nM | 26 nM
